Data from patent publication US20250388623A1, “PEPTIDE INHIBITOR AND USE THEREOF” (CHENGDU BRILLIANT INSPIRATION BIOTHERAPEUTICS CO., LTD, priority 2022, published 2025).
Bridge positions count the residues as written; N and C are the ends. Ends that are not written are not given here.

Columns and labels:
[1] = biological target: T1, binding of TSP-1 protein to CD36, a TSP-1 receptor protein (Homo sapiens, UniProt P07996); assay: ELISA: blocking of CD36 binding to TSP-1 protein; settings: 100 μM polypeptide, 0.25 μg/mL Fc-tagged CD36, blocking of CD36 binding to TSP-1; for inhibition at 100 µM: 3 h, read-out: Blocking rate (Mean, %)
T1 construct: purchased novoprotein (TSP-1); R&D Systems (Fc-tagged CD36) CU45 (TSP-1); 1955-CD-050 (CD36-Fc)
T1 sequence (P07996 19-1170): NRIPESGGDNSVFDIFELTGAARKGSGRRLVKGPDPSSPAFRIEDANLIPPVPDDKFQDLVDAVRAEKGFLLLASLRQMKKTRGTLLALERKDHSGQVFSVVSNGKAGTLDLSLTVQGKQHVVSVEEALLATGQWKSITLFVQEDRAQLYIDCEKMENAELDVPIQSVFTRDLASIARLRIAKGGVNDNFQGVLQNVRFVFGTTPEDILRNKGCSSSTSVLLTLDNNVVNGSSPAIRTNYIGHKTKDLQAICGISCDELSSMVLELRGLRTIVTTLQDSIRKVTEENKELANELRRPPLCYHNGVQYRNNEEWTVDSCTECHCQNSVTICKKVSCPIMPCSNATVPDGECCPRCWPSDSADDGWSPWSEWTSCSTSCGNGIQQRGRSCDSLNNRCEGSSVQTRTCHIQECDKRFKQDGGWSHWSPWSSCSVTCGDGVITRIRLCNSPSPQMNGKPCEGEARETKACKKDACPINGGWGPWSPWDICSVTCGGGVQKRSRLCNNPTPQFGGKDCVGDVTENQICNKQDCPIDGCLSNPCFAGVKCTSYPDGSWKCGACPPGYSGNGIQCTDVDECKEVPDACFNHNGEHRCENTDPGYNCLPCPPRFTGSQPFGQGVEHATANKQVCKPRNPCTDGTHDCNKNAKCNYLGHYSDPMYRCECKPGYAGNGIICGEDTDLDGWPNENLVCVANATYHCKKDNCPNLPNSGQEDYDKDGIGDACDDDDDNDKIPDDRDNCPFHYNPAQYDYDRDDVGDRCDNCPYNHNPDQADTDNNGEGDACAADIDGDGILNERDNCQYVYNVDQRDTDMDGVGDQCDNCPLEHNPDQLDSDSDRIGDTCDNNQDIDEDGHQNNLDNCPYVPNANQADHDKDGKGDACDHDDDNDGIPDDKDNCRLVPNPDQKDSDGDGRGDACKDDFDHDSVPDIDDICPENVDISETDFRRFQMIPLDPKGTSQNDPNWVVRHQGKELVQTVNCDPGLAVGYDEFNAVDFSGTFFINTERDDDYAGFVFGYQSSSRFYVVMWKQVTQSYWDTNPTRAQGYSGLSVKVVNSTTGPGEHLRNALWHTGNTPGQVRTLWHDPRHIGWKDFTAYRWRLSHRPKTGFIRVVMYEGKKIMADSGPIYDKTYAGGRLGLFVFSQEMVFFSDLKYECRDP
Protocol: ELISA assay was performed to detect the ability of the polypeptides to block the binding of TSP-1 protein to CD36, a TSP-1 receptor protein. TSP-1 protein (novoprotein, Catalog No. CU45) was diluted to 2 μg/mL using 100 mM carbonate buffer and added to sample wells (100 μL/well) of a 96-well ELISA plate (Thermo, Catalog No. 437111), and incubated overnight at 4° C.; after washing the plate twice using 1×PBST wash solution, 200 μL of 1.5% BSA (Sigma, Catalog No. B2064) was added to each well, and incubated at 37° C. for 2 h; after washing the plate 3 times using 1×PBST wash solution, the analytes were added (100 μL/well, 3 replicate wells; for the control group, 0.25 μg/mL of Fc-tagged CD36 protein (R&D Systems, Catalog No. 1955-CD-050); and for the polypeptide-treated groups, a mixture containing Fc-tagged CD36 protein and polypeptide at final concentrations of 0.25 μg/mL and 100 μM, respectively), and incubated at 37° C. for 3 h. After washing the plate 5 times using 1×PBST wash solution, a 1:500 dilution solution of FITC-labeled anti-Fc-tagged antibody (Beyotime, Catalog No. A0556) was added, and incubated for 1 h at 37° C.; after washing the plate 5 times using 1×PBST wash solution, a multifunctional ELISA instrument (TECAN, model: Infinite 200 Pro) was used to detect the intensity of FITC fluorescence signal in each sample well. The ability of the polypeptides to block CD36 binding to TSP-1 protein (Table 2-1) was assessed by calculating the ratio of the fluorescence signal from the polypeptide-treated groups to that of the control group, allowing for the determination of the blocking rate of the polypeptides in inhibiting CD36 binding to TSP-1 protein, i.e., (fluorescence signal of the control group-fluorescence signal of the polypeptide-treated group)/fluorescence signal of the control group×100%. Based on the blocking rate results obtained at the single concentration and on the polypeptide molecule properties, the preferred polypeptide molecules were assayed for concentration dependence (at 0 μM, 0.5 μM, 1 μM, 5 μM, 10 μM, and 100 μM), and IC50 values of the polypeptides for blocking CD36 binding to TSP-1 protein were determined to further assess the abilities of the preferred polypeptide molecules to block the binding of CD36 to TSP-1 (Table 2-2).

active TGF-β = assay: Active TGF-β level in lung tissue, bleomycin (BLM) mouse lung fibrosis model; format: in vivo; settings: single intratracheal dose 3 mg/kg on Day 7, lung 24 h later; BLM model group = 100.00
Source text: This Example was to evaluate the inhibitory effect of polypeptides on active TGF-β level during the progression of fibrotic disease. In this Example, a mouse lung fibrosis model induced by bleomycin (BLM) was used. The BLM animal model offers advantages, including a close mimicry of the pathological features of the primary disease, ease of use, and good reproducibility. It is the most representative model for studying the mechanisms of fibrosis and is recommended for evaluating drug efficacy.
In this Example, 6 to 8-week-old male C57/6J mice weighing 18-20 g were used as subjects for the study. The experimental animals were randomized into groups, 8 animals in each group, and the expressions of pro-fibrotic factors were detected at the endpoint of the experiment (Day 8) in this model. In this example, an aerosol intratracheal metered dosing applicator (Yuyan, model YAN30012) was utilized for intratracheal administration during the modeling and drug delivery processes. The dosing was performed as follows (An Official American Thoracic Society Workshop Report: Use of Animal Models for the Preclinical Assessment of Potential Therapies for Pulmonary Fibrosis, Am J Respir Cell Mol Biol Vol 56, Iss 5, pp 667-679, May 2017): The experimental animals were anesthetized with aerosolized isoflurane (RWD, lot no. 22041701) using a small animal anesthesia machine (RWD, model R500IE). Animals in the appropriate anesthetic state were positioned supine with heads facing up and bodies tilted on an operating platform (tilted at approximately) 60°, secured by their incisors. The practitioner gently lifted the tongue with tissue forceps in the right hand, pushing it outward and upward to open the animal's lower jaw. Holding the laryngoscope (Yuyan, model SR310-RW) in the left hand, the practitioner slid its anterior leaf-shaped blade along the midline of the tongue into the oral cavity until reaching the glottis, gently pressing the body and root of the tongue upward. The needle of the drug applicator was then inserted through the mouth into the glottis alongside the laryngoscope, and 50 μL of liquid was quickly injected. On the day of modeling (Day 1), the experimental animals were randomly assigned to groups and administered a 0.7 USP/kg dose of bleomycin solution (HanHui Pharmaceutical, Batch No. 20080511) via the tracheal route to induce the model. On Day 7, each peptide-treated group received a single intratracheal dose of 50 μL peptide drug (at a dosage of 3 mg/kg), while the model group was given an equal volume of solvent (saline, Kelong, Batch No. L221062501) as a control. Twenty-four hours after drug administration, the animals were dissected to collect lung tissue, which was ground in liquid nitrogen to extract total protein from the lung tissue. The active TGF-β content in the lung tissue of mice from each group was measured using the TGF-β ELISA kit (BOSTER, catalog number EK0515). The ratio of active TGF-β content between the peptide-treated group and the model group was calculated to evaluate the effect of the peptide on active TGF-β level.

P-Smad2/3 = P-Smad2/3 content in lung tissue, BLM mouse fibrosis model; format: in vivo; settings: single intratracheal dose 3 mg/kg on Day 7, lung 24 h later; BLM model group = 100.00
Source text: This example aimed to evaluate the inhibitory effect of polypeptides on the TGF-β downstream signaling pathway during fibrosis progression. TGF-β intracellular signaling relies on the phosphorylation events of Smad family proteins. The increase in Smad2/3 phosphorylation levels is an important indicator that signal transduction has occurred in the TGF-β signaling pathway.
In this example, 6- to 8-week-old male C57/6J mice weighing 18-20 g were used as subjects for the study. The experimental animals were randomized into groups, eight animals in each group. In this example, intratracheal administration was performed using an aerosol intratracheal metered dosing applicator during both the modeling and drug delivery processes, as described in Example 4. On the day of modeling (Day 1), the experimental animals were randomly assigned to groups and administered a 0.7 USP/kg dose of bleomycin solution (HanHui Pharmaceutical, Batch No. 20080511) via the tracheal route to induce the model. On Day 7, each peptide-treated group received a single intratracheal dose of peptide drug at a dosage of 3 mg/kg, while the BLM model group was given an equal volume of solvent (saline) as a control. Twenty-four hours after drug administration, the animals were dissected, and the lung tissues were collected and frozen in liquid nitrogen for future use. Total protein from the lung tissue was extracted after grinding the tissue in liquid nitrogen, and the total P-Smad2/3 content in the tissue was measured by using P-Smad2/3 ELISA kit (CST, Catalog No. 12001C). The ratio of the P-Smad2/3 content between the peptide-treated group and the model group was calculated to evaluate the effect of the peptide on TGFβ signaling.

Substance | Blocking rate (Mean, %) [1] | active TGF-β content in lung tissue, ratio to model group, Mean(%) (active TGF-β) | P-Smad2/3 content in lung tissue, ratio to model group, Mean(%) (P-Smad2/3) | inhibition at 100 µM [1]
Ac-Thr-Gln-Asp-Ala-Glu-Asp-Asn-Thr-Ala-Ser-Trp-NH2 (Ac-TQDAEDNTASW-NH2) [SEQ ID NO: 34] | 20.44% |  |  | 
Ac-Thr-Gln-Asp-Ala-Glu-Asp-Pro-NH2 (Ac-TQDAEDP-NH2) [SEQ ID NO: 13] | 16.56% |  |  | 
Ac-Thr-Gln-Asp-Pro-Ala-Glu-Asp-NH2 (Ac-TQDPAED-NH2) [SEQ ID NO: 47] | 19.10% | 83.78% | 93.25% | 
Thr-Gln-cyclo[Asp-Ala-Glu-Asp-Asn-Lys] (TQDAEDNK; lactam 3-8) [SEQ ID NO: 42] | 25.68% | 80.59% | 85.16% | 
Ac-Thr-Asn-Asp-Ala-Glu-Asp-Asn-NH2 (Ac-TNDAEDN-NH2) [SEQ ID NO: 08] | 16.70% | 80.31% | 83.02% | 
Ac-Thr-Gln-Asp-Ala-Glu-Asp-Asn-Thr-Val-NH2 (Ac-TQDAEDNTV-NH2) [SEQ ID NO: 17] | 29.16% | 71.36% | 74.12% | 
Ac-Thr-Gln-Asp-Ala-Glu-Asp-Leu-NH2 (Ac-TQDAEDL-NH2) [SEQ ID NO: 12] | 18.39% | 81.77% | 90.48% | 
Ac-TQDAEDNTQD-NH2 [SEQ ID NO: 49, Ac-Thr-Gln-Asp-Ala-Glu-Asp-Asn-Thr-Gln-Asp-NH2] |  | 82.64% | 91.98% | 30.2%
Ac-Ser-Gln-Asp-Ala-Glu-Asp-Asn-NH2 (Ac-SQDAEDN-NH2) [SEQ ID NO: 07] | 16.42% | 71.66% | 80.71% | 
Ac-Thr-Gln-Asp-Pro-Glu-Asp-Asn-Thr-Val-Ser-Phe-NH2 (Ac-TQDPEDNTVSF-NH2) [SEQ ID NO: 30] | 22.45% |  |  | 
Ac-TQDAEDNT-NH2 [SEQ ID NO: 15, Ac-Thr-Gln-Asp-Ala-Glu-Asp-Asn-Thr-NH2] |  |  |  | 30.6%
Ac-Gln-Asp-Ala-Glu-Asp-NH2 (Ac-QDAED-NH2) [SEQ ID NO: 02] | 16.39% |  |  | 
Ac-Thr-Glu-Asp-Ala-Glu-Asp-Asn-Thr-Val-Ser-Phe-NH2 (Ac-TEDAEDNTVSF-NH2) [SEQ ID NO: 29] | 25.05% |  |  | 
Ac-Gln-Asp-Pro-Glu-Asp-NH2 (Ac-QDPED-NH2) [SEQ ID NO: 01] | 17.84% |  |  | 
Ac-Ser-Gln-Asp-Ala-Glu-Asp-Asn-Thr-Val-NH2 (Ac-SQDAEDNTV-NH2) [SEQ ID NO: 18] | 18.79% |  |  | 
Ac-Thr-Gln-Asp-Ser-Glu-Asp-Asn-NH2 (Ac-TQDSEDN-NH2) [SEQ ID NO: 11] | 15.19% |  |  | 
Ac-Thr-Gln-Asp-Pro-Glu-Asp-Asn-Thr-Val-NH2 (Ac-TQDPEDNTV-NH2) [SEQ ID NO: 20] | 26.03% |  |  | 
Ac-Thr-Gln-Asp-Pro-Glu-Asp-NH2 (Ac-TQDPED-NH2) [SEQ ID NO: 03] | 16.02% |  |  | 
Ac-Gln-Asp-Ala-Glu-Asp-Asn-Thr-Ala-NH2 (Ac-QDAEDNTA-NH2) [SEQ ID NO: 16] | 24.87% |  |  | 
Ac-Ser-Gln-Asp-Ala-Glu-Asp-Asn-Thr-Val-Ser-Phe-Leu-Gln-NH2 (Ac-SQDAEDNTVSFLQ-NH2) [SEQ ID NO: 37] | 22.41% |  |  | 
Ac-Thr-Ser-Asp-Ala-Glu-Asp-Asn-Thr-Val-Ser-Phe-Leu-Gln-NH2 (Ac-TSDAEDNTVSFLQ-NH2) [SEQ ID NO: 38] | 20.22% |  |  | 
Ac-Thr-Gln-Asp-Ala-Glu-Asp-Asn-Thr-Ala-Ser-Tyr-NH2 (Ac-TQDAEDNTASY-NH2) [SEQ ID NO: 32] | 21.45% |  |  | 
Ac-QDAEDNTAS-NH2 [SEQ ID NO: 23, Ac-Gln-Asp-Ala-Glu-Asp-Asn-Thr-Ala-Ser-NH2] |  |  |  | 22.8%
Ac-Thr-Gln-Asp-Pro-Glu-Asp-Asn-Thr-Val-Ser-Phe-Leu-Gln-NH2 (Ac-TQDPEDNTVSFLQ-NH2) [SEQ ID NO: 39] | 22.29% |  |  | 
Ac-Thr-Gln-Asp-Ser-Glu-Asp-Asn-Thr-Val-NH2 (Ac-TQDSEDNTV-NH2) [SEQ ID NO: 21] | 15.63% |  |  | 
Ac-Thr-Asn-Asp-Ala-Glu-Asp-Asn-Thr-Val-NH2 (Ac-TNDAEDNTV-NH2) [SEQ ID NO: 19] | 16.86% |  |  | 
Ac-Thr-Gln-Asp-Ala-Glu-Asp-Asn-Thr-Ala-Ser-His-Leu-NH2 (Ac-TQDAEDNTASHL-NH2) [SEQ ID NO: 35] | 21.58% |  |  | 
Ac-Thr-Ser-Asp-Ala-Glu-Asp-Asn-NH2 (Ac-TSDAEDN-NH2) [SEQ ID NO: 10] | 14.54% |  |  | 
Ac-Ser-Gln-Asp-Ala-Glu-Asp-Asn-Thr-Val-Ser-Phe-NH2 (Ac-SQDAEDNTVSF-NH2) [SEQ ID NO: 28] | 21.71% |  |  | 
